Drawing on PMC12990809, this text covers binding signal (z-score (mean of top ten 7-mers)) for ten sequences.

Experiment in all cases: pulldown
Data set [1] has as its system T1, PK23842.1 (Cannabis sativa).
T1 sequence: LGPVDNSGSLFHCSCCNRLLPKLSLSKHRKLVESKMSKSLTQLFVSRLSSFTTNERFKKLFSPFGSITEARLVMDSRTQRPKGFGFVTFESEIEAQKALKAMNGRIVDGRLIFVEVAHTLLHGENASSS
To be noted: 20 nM protein, 1.5 uM RNA pool; 20 mM HEPES pH 7.8, 70 mM KCl, 10 mM NaCl, 10% glycerol, 2 mM DTT, 0.1 ug/uL BSA; 30 min, 4 C.

Another data set deals with HNRNPA1 (Homo sapiens) (UniProt P09651). To be noted: 20 nM protein, 1.5 uM RNA pool; 20 mM HEPES pH 7.8, 70 mM KCl, 10 mM NaCl, 10% glycerol, 2 mM DTT, 0.1 ug/uL BSA; 30 min, 4 C (protocol of this paper; not …); cited from earlier work.
Data set [2] concerns the target T2, PK23225.1 P17S (Cannabis sativa) (UniProt A0A7J6EWR7).
T2 sequence: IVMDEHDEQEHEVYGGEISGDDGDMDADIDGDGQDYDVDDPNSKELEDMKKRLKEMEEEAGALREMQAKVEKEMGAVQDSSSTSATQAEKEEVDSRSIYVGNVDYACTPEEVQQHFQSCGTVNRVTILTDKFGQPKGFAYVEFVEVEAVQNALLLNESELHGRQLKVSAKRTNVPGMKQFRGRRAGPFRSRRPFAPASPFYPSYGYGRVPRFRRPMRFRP
The conditions noted are these: 20 nM protein, 1.5 uM RNA pool; 20 mM HEPES pH 7.8, 70 mM KCl, 10 mM NaCl, 10% glycerol, 2 mM DTT, 0.1 ug/uL BSA; 30 min, 4 C.

Data set [3] deals with T3, rsp-2 (Caenorhabditis elegans) (UniProt Q23120).
T3 sequence: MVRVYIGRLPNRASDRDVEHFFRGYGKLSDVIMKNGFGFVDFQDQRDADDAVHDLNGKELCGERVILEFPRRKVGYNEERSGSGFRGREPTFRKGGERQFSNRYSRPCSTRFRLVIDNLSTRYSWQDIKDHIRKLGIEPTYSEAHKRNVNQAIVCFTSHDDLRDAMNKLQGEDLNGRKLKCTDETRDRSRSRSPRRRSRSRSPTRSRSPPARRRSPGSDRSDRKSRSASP
To be noted: 20 nM protein, 1.5 uM RNA pool; 20 mM HEPES pH 7.8, 70 mM KCl, 10 mM NaCl, 10% glycerol, 2 mM DTT, 0.1 ug/uL BSA; 30 min, 4 C.

Data set [4] has as its target T4, PK04894.1 Y197N (Cannabis sativa) (UniProt A0A803PQ48).
T4 sequence: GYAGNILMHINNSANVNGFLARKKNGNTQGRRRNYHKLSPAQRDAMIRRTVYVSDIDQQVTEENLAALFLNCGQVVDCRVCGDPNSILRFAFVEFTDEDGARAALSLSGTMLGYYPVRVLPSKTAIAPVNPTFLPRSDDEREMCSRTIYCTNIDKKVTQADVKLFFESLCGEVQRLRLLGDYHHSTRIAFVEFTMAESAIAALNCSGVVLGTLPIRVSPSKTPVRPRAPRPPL
To be noted: 20 nM protein, 1.5 uM RNA pool; 20 mM HEPES pH 7.8, 70 mM KCl, 10 mM NaCl, 10% glycerol, 2 mM DTT, 0.1 ug/uL BSA; 30 min, 4 C.

Data set [5] addresses T5, DDB_G0286331 (Dictyostelium discoideum) (UniProt Q54M41).
T5 sequence: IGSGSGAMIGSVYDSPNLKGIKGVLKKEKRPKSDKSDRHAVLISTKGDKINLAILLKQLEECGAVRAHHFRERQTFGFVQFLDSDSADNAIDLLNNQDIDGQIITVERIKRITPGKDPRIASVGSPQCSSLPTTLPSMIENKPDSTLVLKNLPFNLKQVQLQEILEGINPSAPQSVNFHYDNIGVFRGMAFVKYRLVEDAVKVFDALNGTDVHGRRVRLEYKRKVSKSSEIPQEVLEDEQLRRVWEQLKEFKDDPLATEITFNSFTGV
The conditions noted are these: 20 nM protein, 1.5 uM RNA pool; 20 mM HEPES pH 7.8, 70 mM KCl, 10 mM NaCl, 10% glycerol, 2 mM DTT, 0.1 ug/uL BSA; 30 min, 4 C.

The target in data set [6] is T6, PFI1175c (Plasmodium falciparum) (UniProt Q8I2R8).
T6 sequence: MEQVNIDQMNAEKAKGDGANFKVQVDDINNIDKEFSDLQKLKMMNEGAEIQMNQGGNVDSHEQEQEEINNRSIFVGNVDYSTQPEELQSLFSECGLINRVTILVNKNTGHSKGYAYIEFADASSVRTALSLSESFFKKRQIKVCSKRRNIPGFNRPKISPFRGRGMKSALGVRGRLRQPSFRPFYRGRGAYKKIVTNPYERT
The conditions noted are these: 20 nM protein, 1.5 uM RNA pool; 20 mM HEPES pH 7.8, 70 mM KCl, 10 mM NaCl, 10% glycerol, 2 mM DTT, 0.1 ug/uL BSA; 30 min, 4 C.

Data set [7] has as its target T7, PK22404.1 A169L;A170F;T171A;T450P (Cannabis sativa) (UniProt A0A803PFA7).
T7 sequence: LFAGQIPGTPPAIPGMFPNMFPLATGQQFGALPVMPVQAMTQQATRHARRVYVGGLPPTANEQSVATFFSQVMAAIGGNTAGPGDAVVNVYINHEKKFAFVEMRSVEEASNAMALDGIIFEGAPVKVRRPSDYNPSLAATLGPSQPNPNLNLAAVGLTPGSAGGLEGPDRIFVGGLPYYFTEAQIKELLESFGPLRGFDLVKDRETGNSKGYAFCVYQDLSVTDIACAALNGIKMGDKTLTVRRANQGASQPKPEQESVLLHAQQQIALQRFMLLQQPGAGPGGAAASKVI
The conditions noted are these: 20 nM protein, 1.5 uM RNA pool; 20 mM HEPES pH 7.8, 70 mM KCl, 10 mM NaCl, 10% glycerol, 2 mM DTT, 0.1 ug/uL BSA; 30 min, 4 C.

Data set [8] addresses T8, PK27672.1 (Cannabis sativa) (UniProt A0A7J6HI09).
T8 sequence: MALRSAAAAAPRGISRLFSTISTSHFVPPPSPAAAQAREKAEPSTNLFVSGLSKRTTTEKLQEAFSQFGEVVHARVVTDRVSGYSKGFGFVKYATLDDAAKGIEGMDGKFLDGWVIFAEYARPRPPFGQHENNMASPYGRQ
To be noted: 20 nM protein, 1.5 uM RNA pool; 20 mM HEPES pH 7.8, 70 mM KCl, 10 mM NaCl, 10% glycerol, 2 mM DTT, 0.1 ug/uL BSA; 30 min, 4 C.

The target of another data set is HNRNPA1L2 (Homo sapiens) (UniProt Q32P51). To be noted: 20 nM protein, 1.5 uM RNA pool; 20 mM HEPES pH 7.8, 70 mM KCl, 10 mM NaCl, 10% glycerol, 2 mM DTT, 0.1 ug/uL BSA; 30 min, 4 C (protocol of this paper; not …); cited from earlier work.
Sequence of HNRNPA1L2 (Homo sapiens) (Q32P51 1-226): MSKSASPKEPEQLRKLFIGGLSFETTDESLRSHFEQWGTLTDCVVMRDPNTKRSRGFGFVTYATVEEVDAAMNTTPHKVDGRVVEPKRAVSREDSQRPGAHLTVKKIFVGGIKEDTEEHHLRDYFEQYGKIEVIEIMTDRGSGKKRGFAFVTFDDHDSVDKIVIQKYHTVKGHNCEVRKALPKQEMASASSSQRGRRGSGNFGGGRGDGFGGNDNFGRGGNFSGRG

Sequence of HNRNPA1 (Homo sapiens) (P09651 1-226): as the sequence (Q32P51 1-226) above, with A5E, T74A, T75R, K171N, P182S, R197S, D208G counted along it

AAUCCA [RNAcompete motif RNCMPT00372] returned a binding signal (z-score (mean of top ten 7-mers)) in data set [1] of 6.16.

Turning to UAGGGA [RNAcompete motif RNCMPT00022], in the data set with HNRNPA1 (Homo sapiens), the binding signal (z-score (mean of top ten 7-mers)) was 10.

In [2], AAAAAGA [RNAcompete motif RNCMPT00370] came in with a binding signal (z-score (mean of top ten 7-mers)) of 12.

GGAGGAG [RNAcompete motif RNCMPT00352] showed a binding signal (z-score (mean of top ten 7-mers)) in data set [3] of 9.21.

With AAUAAG [RNAcompete motif RNCMPT00346], the binding signal (z-score (mean of top ten 7-mers)) in [4] was 15.1.

In data set [5], AUAAAC [RNAcompete motif RNCMPT00351] yielded a binding signal (z-score (mean of top ten 7-mers)) of 8.36.

On to AAAAAGA [RNAcompete motif RNCMPT00380], for which the binding signal (z-score (mean of top ten 7-mers)) in data set [6] was 9.25.

As for UUUUUUG [RNAcompete motif RNCMPT00343], in data set [7], the binding signal (z-score (mean of top ten 7-mers)) was found to be 13.5.

On to AGUACA [RNAcompete motif RNCMPT00342], for which the binding signal (z-score (mean of top ten 7-mers)) in data set [8] was 9.79.

As to UAGGG [RNAcompete motif RNCMPT00023], in the data set with HNRNPA1L2 (Homo sapiens), the binding signal (z-score (mean of top ten 7-mers)) was 7.23.
